Reference: patent US20230340152A1 (published 2023)
Substitutions are numbered along the chain they refer to. Numbers in names are those of the source.

Key:
[1] = target: T1, CD73 construct with chicken N- and C-terminal domain sequence with human V144 and N185 knocked in (chicken; human); experiment: SPR, MEDI9447 dilutions from 5 nM to 0.3 nM
T1 chain: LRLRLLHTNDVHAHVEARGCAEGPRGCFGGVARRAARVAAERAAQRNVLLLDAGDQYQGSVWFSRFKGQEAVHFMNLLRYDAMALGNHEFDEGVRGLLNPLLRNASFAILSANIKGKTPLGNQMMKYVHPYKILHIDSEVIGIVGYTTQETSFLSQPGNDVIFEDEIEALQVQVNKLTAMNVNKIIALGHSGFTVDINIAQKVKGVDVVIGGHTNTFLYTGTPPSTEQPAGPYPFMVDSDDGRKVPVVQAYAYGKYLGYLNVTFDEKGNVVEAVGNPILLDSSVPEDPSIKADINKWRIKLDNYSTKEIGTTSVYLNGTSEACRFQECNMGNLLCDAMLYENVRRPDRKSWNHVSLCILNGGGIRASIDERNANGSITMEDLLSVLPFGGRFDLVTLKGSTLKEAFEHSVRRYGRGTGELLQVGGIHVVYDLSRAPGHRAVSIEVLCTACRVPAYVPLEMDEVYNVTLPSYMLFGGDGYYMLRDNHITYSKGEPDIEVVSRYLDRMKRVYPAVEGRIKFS
Source text: FIG. 24C depicts a close-up of the epitope residues located within the N-terminal domain of CD73. The most important residues for binding are shown highlighted and less impactful positions (Y135, K136, and N187) are in pink. The HDX interface is overlaid in blue. FIG. 24D depicts a surface representation showing that the epitope forms a near contiguous binding surface. FIG. 24E depicts a crystal structure of the open conformation of CD73 showing the position of the epitope at the apical, lateral surface of the N-terminal domain. […] In all crystal structures, the CD73 N-terminal domain, linker region, and C-terminal domain are depicted in yellow, orange, and blue, respectively.
Binding of MEDI9447 to wild-type and mutant CD73 proteins was measured by surface plasmon resonance (SPR) using a ProteOn instrument (BioRad). CD73 crude cell supernatant protein samples were diluted to 3 µg/ml in PBS, 0.005% Tween-20, pH 7.4 (BioRad) and immobilized to ~400 RU on a HTG tris-NTA sensor chip (BioRad) pre-activated with 10 mM NiSO₄, 10 mM MES, pH 6.0 (BioRad). […] Sensorgrams were recorded by flowing two-fold dilutions of MEDI9447 prepared in PBS, 0.005% Tween-20, pH 7.4, ranging from 5 nM to 0.31 nM. […] Antibody binding was measured at a flow rate of 100 µL/min with a 3 min association phase and 20 min dissociation phase. […] Binding kinetics were analyzed using the ProteOn data analysis software. […]

Cynomolgus CD73 ECD = target: T2, Cynomolgus CD73 ECD (cynomolgus, UniProt A0A2K5V5U7 27-549); experiment: SPR (Proteon)
T2 construct: extracellular domain; also called cyno CD73
T2 sequence: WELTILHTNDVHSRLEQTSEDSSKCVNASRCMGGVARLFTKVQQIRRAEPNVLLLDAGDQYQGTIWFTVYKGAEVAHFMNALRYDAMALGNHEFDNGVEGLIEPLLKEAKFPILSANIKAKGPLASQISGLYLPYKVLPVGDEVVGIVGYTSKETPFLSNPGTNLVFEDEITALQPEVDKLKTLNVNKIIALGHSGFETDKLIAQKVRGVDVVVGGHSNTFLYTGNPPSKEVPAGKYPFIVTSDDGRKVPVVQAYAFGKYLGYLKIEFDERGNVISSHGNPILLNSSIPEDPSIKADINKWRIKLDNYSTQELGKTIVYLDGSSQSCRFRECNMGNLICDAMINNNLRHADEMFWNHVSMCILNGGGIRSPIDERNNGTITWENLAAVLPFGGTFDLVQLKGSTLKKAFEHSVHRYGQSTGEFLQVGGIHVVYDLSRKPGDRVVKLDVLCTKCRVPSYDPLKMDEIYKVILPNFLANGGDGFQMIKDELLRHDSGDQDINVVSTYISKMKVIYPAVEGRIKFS

[2] = target: T3, Murine CD73 on cells (4T1, Jurkat mCD73 knock-in) (murine, UniProt Q61503 29-551); experiment: cell-based or functional assay
T3 sequence (looked up): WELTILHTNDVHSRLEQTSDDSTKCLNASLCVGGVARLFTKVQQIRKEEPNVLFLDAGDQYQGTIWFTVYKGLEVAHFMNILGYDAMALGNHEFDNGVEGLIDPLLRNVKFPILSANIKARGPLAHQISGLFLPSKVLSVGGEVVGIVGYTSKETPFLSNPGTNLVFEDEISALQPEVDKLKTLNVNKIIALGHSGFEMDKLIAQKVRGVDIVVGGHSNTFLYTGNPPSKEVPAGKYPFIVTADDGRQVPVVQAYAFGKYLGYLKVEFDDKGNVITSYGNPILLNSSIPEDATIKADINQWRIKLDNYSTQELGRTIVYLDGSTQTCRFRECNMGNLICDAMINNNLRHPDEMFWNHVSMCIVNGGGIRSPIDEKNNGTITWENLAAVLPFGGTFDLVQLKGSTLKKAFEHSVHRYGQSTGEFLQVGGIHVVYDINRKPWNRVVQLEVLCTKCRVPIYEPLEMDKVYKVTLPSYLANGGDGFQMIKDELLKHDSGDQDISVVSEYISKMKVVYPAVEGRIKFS

[3] = target: T4, Human CD73 on cells (MDA-MB-231, Jurkat CD73 knock-in, NCI-H322) (human, UniProt P21589 27-549); experiment: cell-based or functional assay
T4 sequence: T2 sequence with T199M, A350T, I466V

B1: MEDI9447 (antibody, human IgG1, lambda, V domains shown)
VH: EVQLLESGGGLVQPGGSLRLSCAASGFTFSSYAYSWVRQAPGKGLEWVSAISGSGGRTYYADSVKGRFTISRDNSKNTLYLQMNSLRAEDTAVYYCARLGYGRVDEWGRGTLVTVSS
VL: QSVLTQPPSASGTPGQRVTISCSGSLSNIGRNPVNWYQQLPGTAPKLLIYLDNLRLSGVPDRFSGSKSGTSASLAISGLQSEDEADYYCATWDDSHPGWTFGGGTKLTVLG
notes: Human IgG1-TM (L234F, L235E, P331S), lambda light chain; also called clone 10.3 antibody; 73combo3
For B1, the “fold of the KD for wild-type CD73” value [1] was less than 20 fold, the Kd (Cynomolgus CD73 ECD) was 7 pM and the “FabZAP internalization, EC50, 4T1” value [2] was 18.5 pM. For the same binder, the “FabZAP internalization, EC50, MDA-MB-231” value [3] was 3.5 pM.
